Target: recombinant human PD-L1-mFc fusion protein (human) (UniProt Q9NZQ7)
Assay: ELISA, human PD-L1-mFc immobilised (1 µg/mL), anti-human kappa-HRP detection

recombinant human PD-L1-mFc fusion protein (human), sequence (Q9NZQ7 19-238): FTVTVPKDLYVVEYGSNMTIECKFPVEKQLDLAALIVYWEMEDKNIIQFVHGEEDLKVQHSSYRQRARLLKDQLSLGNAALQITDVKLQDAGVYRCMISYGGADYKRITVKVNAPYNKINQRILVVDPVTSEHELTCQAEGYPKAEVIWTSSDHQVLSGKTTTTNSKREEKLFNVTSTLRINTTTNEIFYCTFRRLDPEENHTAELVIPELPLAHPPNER

Avelumab/TGFβR (antibody) showed an EC50 of 0.107 nM.
